B1: Hunk (hormonally up-regulated, neu-tumor-associated kinase), murine, 714-amino-acid ~80-kDa polypeptide (protein)
chain: MPAAAGDGLLGEPAAPGGDGGAEDTTRPAAACEGSFLPAWVSGVSRERLRDFQHHKRVGNYLIGSRKLGEGSFAKVREGLHVLTGEKVAIKVIDKKRAKKDTYVTKNLRREGQIQQMIRHPNITQLLDILETENSYYLVMELCPGGNLMHKIYEKKRLDEAEARRYIRQLISAVEHLHRAGVVHRDLKIENLLLDEDNNIKLIDFGLSNCAGILGYSDPFSTQCGSPAYAAPELLARKKYGPKIDVWSIGVNMYAMLTGTLPFTVEPFSLRALYQKMVDKAMNPLPTQLSTGAVNFLRSLLEPDPVKRPNIQQALANRWLNENYTGKVPCNVTYPNRISLEDLSPSVVLHMTEKLGYKNSDVINTVLSNRACHILAIYFLLNKKLERYLSGKSDIQDSICYKTQLYQIEKCRATKEPYEASLDTWTRDFEFHAVQDKKPKEQEKRGDFLHRPFSKKLDKNLPSHKQPSPSLITQLQSTKALLKDRKASKSGFPDKDSFVCRNLFRKTSDSNCVASSSMEFIPVPPPRTPRIVKKLEPHQPGPGSASILPKEEPLLLDMVRSFESVDREDHIELLSPSHHYRILSSPVSLARRNSSERTLSQGLLSGSTSPLQTPLHSTLVSFAHEEKNSPPKEEGVCSPPPVPSNGLLQPLGSPNCVKSRGRFPMMGIGQMLRKRHQSLQPSSERSLDASMSPLQPIAPSSLSFDMADGVKGQC
For B1, the “in vitro kinase assay of Hunk immunoprecipitates with [gamma-32P]ATP” value (histone H1) was “Hunk immunoprecipitates were able to phosphorylate both histone H1 and MBP in vitro”, the “in vitro kinase assay of anti-Hunk (C-terminal antisera) immunoprecipitates from lactating mammary glands” value (histone H1) was “Hunk-associated kinase activity was substantially greater in immunoprecipitates prepared from transgenic when compared with wild type mammary glands” and the “in vitro kinase assay of Hunk immunoprecipitates with [gamma-32P]ATP” value (myelin basic protein) was “Hunk immunoprecipitates were able to phosphorylate both histone H1 and MBP in vitro”.
